B1: PapMV HAV-ANP2 (designed binder)
chain: MASTPNIAFPAITQEQMSSIKVDPTSNLLPSQEQLKSVSTLMVAAKVPAASVTTVALELVNFCYDNGSSAYTTVTGPSSIPEISLAQLASIVKASGTSLRKFCRYFAPIIWNLRTDKMAPANWEASGYKPSAKFAAFDFFDGVENPAAMQPPSGLTRSPTQEERIANATNKQVHLFQAAAQDNNFASNSAFITKGQISGSTPTIQFLPPPETSKVWQIPHTRHHHHHH

Assays:
[1] = molecular target: T1, influenza A/WSN/33 (H1N1) NP protein (influenza virus A/WSN/33 (H1N1), UniProt P15682 1-498)
[2] = molecular target: T1, influenza A/WSN/33 (H1N1) NP protein; experiment: phage display panning (Ph.D.-7) on NP coated on MaxiSorp plates, 5 rounds

T1 sequence (P15682 whole entry): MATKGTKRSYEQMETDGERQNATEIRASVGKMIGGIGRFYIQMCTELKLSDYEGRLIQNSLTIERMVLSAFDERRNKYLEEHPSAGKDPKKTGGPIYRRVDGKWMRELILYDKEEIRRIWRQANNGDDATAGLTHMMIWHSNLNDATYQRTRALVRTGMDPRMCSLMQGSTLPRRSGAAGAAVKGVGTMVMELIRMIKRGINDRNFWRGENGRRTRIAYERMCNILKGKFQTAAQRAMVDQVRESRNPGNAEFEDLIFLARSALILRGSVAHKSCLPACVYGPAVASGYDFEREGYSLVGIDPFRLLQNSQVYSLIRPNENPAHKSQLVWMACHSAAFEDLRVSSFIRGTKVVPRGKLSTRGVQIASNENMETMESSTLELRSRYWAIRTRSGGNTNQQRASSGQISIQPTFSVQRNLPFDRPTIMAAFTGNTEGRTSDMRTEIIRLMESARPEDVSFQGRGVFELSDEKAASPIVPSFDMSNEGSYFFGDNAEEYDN

Binder | fold increase of the avidity (OPD, nm) over HAV-ANP 1 and PapMV VLPs [1] [fold] | fold increase of the signal over PapMV HAV-ANP1 and PapMV VLPs [1] [fold] | binding result [2]
B1 | ~5 | 5 | 
FHEFWPT (also called ANP1) |  |  | binds

From patent US20130280298A1 (FOLIA BIOTECH, published 2013)
